Literature values, collected in publication PMC8431939.

Target: CD112 (Homo sapiens) (UniProt Q92692)
Experiment: SPR

Chain of UniProt Q92692 (Q92692 32-538): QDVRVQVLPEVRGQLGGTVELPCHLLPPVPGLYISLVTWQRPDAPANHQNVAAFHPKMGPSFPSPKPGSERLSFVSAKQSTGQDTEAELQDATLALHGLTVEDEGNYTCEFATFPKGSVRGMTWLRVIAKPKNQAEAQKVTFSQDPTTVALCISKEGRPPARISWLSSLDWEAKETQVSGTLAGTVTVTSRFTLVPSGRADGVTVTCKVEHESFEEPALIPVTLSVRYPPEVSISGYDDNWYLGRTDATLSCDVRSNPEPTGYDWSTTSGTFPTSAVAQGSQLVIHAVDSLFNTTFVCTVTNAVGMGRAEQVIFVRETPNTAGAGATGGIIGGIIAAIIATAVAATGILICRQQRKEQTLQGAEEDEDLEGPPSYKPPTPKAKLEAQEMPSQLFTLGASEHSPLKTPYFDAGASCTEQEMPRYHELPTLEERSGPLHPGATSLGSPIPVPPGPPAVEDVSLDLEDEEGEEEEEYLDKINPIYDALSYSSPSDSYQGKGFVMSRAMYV

## CD112R (from UniProt Q6DKI7)
  Kd: 88 nM
